Laboratory results reported in the supplement of paper PMC10899765.

The sequences below were run on MCF10A (assay: percent viability (nuclei count relative to siNT); higher = more viable cells). Conditions: 20 nM; 72 h.
Method: (§1)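 After 72 h, cells were fixed and stained with Hoechst and anti-fibrillarin, and nucleoli per nucleus were counted with CellProfiler. Values are plate-adjusted percent effect for the one-nucleolus and 5+ nucleoli phenotypes, normalised to siNT (0%) and to the positive controls siNOL11 or siKIF11 (100%), as the mean of biological triplicates. Percent viability is the nuclei count relative to siNT.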
In the case of GGAUCCGAGUCACGGCACCA [hsa-miR-4454], the percent viability was 56%. With GGGGAAAGCGAGUAGGGACAUUU [hsa-miR-3153] the percent viability was 55.6%. For UAGCAAGAGAACCAUUACCAUU [hsa-miR-451b], the percent viability was 71.6%. For “UCUCAGGAGUAAAGACAGAGUU [hsa-miR-3664-3p]”, the percent viability was 86.7%. Work on UGCUAGUCUGGACUGAUAUGGU [hsa-miR-8086] yielded a percent viability of 31.7%. “UGGGGAAGGCGUCAGUGUCGGG [hsa-miR-4725-3p]” showed a percent viability of 28.1%. Work on “UUUUGCGAUGUGUUCCUAAUAU [hsa-miR-450a-5p]” yielded a percent viability of 65.3%. In the case of AACUGUUUGCAGAGGAAACUGA [hsa-miR-452-5p], the percent viability was 103%. In the case of CGCCCCUCCUGCCCCCACAG [hsa-miR-4749-3p], the percent viability was 115%. UGCAGCUCUGGUGGAAAAUGGAG [hsa-miR-4660] was tested, and the percent viability was 43.5%. AGGGAUCGCGGGCGGGUGGCGGCCU [hsa-miR-638] was tested, and the percent viability was 88%. With AAGCCUGCCCGGCUCCUCGGG [hsa-miR-596] the percent viability was 74.8%. For CGCGGGUCGGGGUCUGCAGG [hsa-miR-3621], the percent viability was 57.8%. With “ACUUUAACAUGGAGGCACUUGC [hsa-miR-302d-5p]” the percent viability was 92.5%. AGGUUGUCUGUGAUGAGUUCG [hsa-miR-410-5p] was tested, and the percent viability was 39.7%. Sequence ACGGAUGUUUGAGCAUGUGCUA [hsa-miR-105-3p] has a percent viability of 117%. UUCCCAGCCAACGCACCA [hsa-miR-7977] gave a percent viability of 63.8%. Sequence “UGAGACCAGGACUGGAUGCACC [hsa-miR-4786-5p]” has a percent viability of 42.2%. GUUUGGACAUAGUGUGGCUGG [hsa-miR-7850-5p] showed a percent viability of 115%. Sequence “GAGCUUUUGGCCCGGGUUAUAC [hsa-miR-208a-5p]” has a percent viability of 216%. Work on CAAAAACUGCAAUUACUUUCA [hsa-miR-548ae] yielded a percent viability of 153%. For GCUCCCUCUAGGGUCGCUCGGA [hsa-miR-4469], the percent viability was 67.3%. For “UACAUGGAUGGAAACCUUCAAGC [hsa-miR-4802-3p]”, the percent viability was 70.6%. Work on AGGAUGAGCAAAGAAAGUAGAUU [hsa-miR-1255a] yielded a percent viability of 128%. For “CUCUAGAGGGAAGCACUUUCUG [hsa-miR-518d-5p]”, the percent viability was 57.8%. For “UAGGUGGCAGAGGAGGGACUUCA [hsa-miR-6865-5p]”, the percent viability was 11.7%. With “CAGGGAGGCGCUCACUCUCUGCU [hsa-miR-4756-5p]” the percent viability was 158%. With AAAAGUAACUGCGGUUUUUGCCU [hsa-miR-548w] the percent viability was 77.2%. Sequence CUGUACAGGCCACUGCCUUGC [hsa-let-7g-3p] has a percent viability of 55.1%. Work on GUGGGGGAGAGGCUGUC [hsa-miR-1275] yielded a percent viability of 20.5%. For “UGGGCUAAGGGAGAUGAUUGGGUA [hsa-miR-664b-5p]”, the percent viability was 32.1%. Sequence AGGAAACAGGGACCCA [hsa-miR-4261] has a percent viability of 32.1%. UGUUGGGAUUCAGCAGGACCAU [hsa-miR-4425] showed a percent viability of 27.3%. GCAGUGGCUCUGAAAUGAACUC [hsa-miR-5693] gave a percent viability of 33.8%. For “CAUCUCUAAGGAACUCCCCCAA [hsa-miR-3675-3p]”, the percent viability was 62%. UACGGUGAGCCUGUCAUUAUUC [hsa-miR-433-5p] was tested, and the percent viability was 32.9%. Work on “UUGCUCCUGACUCUGUGCCCACA [hsa-miR-6772-3p]” yielded a percent viability of 32.5%. CGGGCGUGGUGGUGGGGG [hsa-miR-1268a] showed a percent viability of 96.6%. Work on GCCCGCGUGUGGAGCCAGGUGU [hsa-miR-1471] yielded a percent viability of 97.1%. GUCCGCUCGGCGGUGGCCCA [hsa-miR-572] was tested, and the percent viability was 96%. Sequence CUUGGGAGCCCUGUUAGACUC [hsa-miR-887-5p] has a percent viability of 176%. With CCUGUGCUCCCAGGGCCUCGC [hsa-miR-5008-3p] the percent viability was 77.3%. UAAGGCACCCUUCUGAGUAGA [hsa-miR-506-3p] showed a percent viability of 15.7%. ACAGGGAGGAGAUUGUA [hsa-miR-4441] gave a percent viability of 18.5%. “UCAGAUGAUCUAAAGGCCUAUA [hsa-miR-1245b-3p]” showed a percent viability of 34.5%. Sequence “AUAUACAGGGGGAGACUCUUAU [hsa-miR-1185-1-3p]” has a percent viability of 20.3%. CCAAUAUUGGCUGUGCUGCUCC [hsa-miR-195-3p] showed a percent viability of 142%. “CCCUCUCUGUCCCACCCAUAG [hsa-miR-6769b-3p]” was tested, and the percent viability was 73.7%. For UUGGCCAUGGGGCUGCGCGG [hsa-miR-3187-3p], the percent viability was 30.1%. “CCUCCCUGCCCGCCUCUCUGCAG [hsa-miR-7113-3p]” was tested, and the percent viability was 70.5%. In the case of UUGCCAUGUCUAAGAAGAA [hsa-miR-4659b-5p], the percent viability was 42%. CAGGGAGGUGAAUGUGAU [hsa-miR-1321] gave a percent viability of 20.2%. CCUCCCACACCCAAGGCUUGCA [hsa-miR-532-3p] was tested, and the percent viability was 38.6%. UCUCCCAACCCUUGUACCAGUG [hsa-miR-150-5p] showed a percent viability of 224%. In the case of AUGUCCAUAUUAUGGGUUAGU [hsa-miR-3912-5p], the percent viability was 83.8%. Work on UACACAAGAAAACCAAGGCUCA [hsa-miR-4801] yielded a percent viability of 82%. Work on “GACACUAGGCAUGUGAGUGAUU [hsa-miR-4704-5p]” yielded a percent viability of 65%. AAAAACUGAGACUACUUUUGCA [hsa-miR-548e] gave a percent viability of 140%. Sequence UGGGAGCUGGACUACUUC [hsa-miR-4300] has a percent viability of 19.7%. With AUCUGUAAGAGAAAGUAAAUGA [hsa-miR-3686] the percent viability was 48.4%.

The sequences below were run on MCF10A (assay: 5+ nucleoli phenotype percent effect (relative to siNT 0% and siKIF11 100%); higher = more cells with five or more nucleoli). Conditions: 20 nM; 72 h.
Method: as §1
GGAUCCGAGUCACGGCACCA [hsa-miR-4454] was tested, and the “5+ nucleoli phenotype percent effect” value was 0.148%. GGGGAAAGCGAGUAGGGACAUUU [hsa-miR-3153] was tested, and the “5+ nucleoli phenotype percent effect” value was 13.5%. UAGCAAGAGAACCAUUACCAUU [hsa-miR-451b] was tested, and the “5+ nucleoli phenotype percent effect” value was 3.42%. In the case of “UCUCAGGAGUAAAGACAGAGUU [hsa-miR-3664-3p]”, the “5+ nucleoli phenotype percent effect” value was 17.2%. UGCUAGUCUGGACUGAUAUGGU [hsa-miR-8086] was tested, and the “5+ nucleoli phenotype percent effect” value was -8.54%. With “UGGGGAAGGCGUCAGUGUCGGG [hsa-miR-4725-3p]” the “5+ nucleoli phenotype percent effect” value was -3%. For “UUUUGCGAUGUGUUCCUAAUAU [hsa-miR-450a-5p]”, the “5+ nucleoli phenotype percent effect” value was 13.7%. AACUGUUUGCAGAGGAAACUGA [hsa-miR-452-5p] was tested, and the “5+ nucleoli phenotype percent effect” value was 28.4%. With CGCCCCUCCUGCCCCCACAG [hsa-miR-4749-3p] the “5+ nucleoli phenotype percent effect” value was 64.3%. In the case of UGCAGCUCUGGUGGAAAAUGGAG [hsa-miR-4660], the “5+ nucleoli phenotype percent effect” value was -12.2%. For AGGGAUCGCGGGCGGGUGGCGGCCU [hsa-miR-638], the “5+ nucleoli phenotype percent effect” value was 9.85%. AAGCCUGCCCGGCUCCUCGGG [hsa-miR-596] was tested, and the “5+ nucleoli phenotype percent effect” value was -11.4%. For CGCGGGUCGGGGUCUGCAGG [hsa-miR-3621], the “5+ nucleoli phenotype percent effect” value was -3.13%. With “ACUUUAACAUGGAGGCACUUGC [hsa-miR-302d-5p]” the “5+ nucleoli phenotype percent effect” value was 29.1%. AGGUUGUCUGUGAUGAGUUCG [hsa-miR-410-5p] was tested, and the “5+ nucleoli phenotype percent effect” value was 75.2%. ACGGAUGUUUGAGCAUGUGCUA [hsa-miR-105-3p] was tested, and the “5+ nucleoli phenotype percent effect” value was 12.2%. With UUCCCAGCCAACGCACCA [hsa-miR-7977] the “5+ nucleoli phenotype percent effect” value was 20.4%. With “UGAGACCAGGACUGGAUGCACC [hsa-miR-4786-5p]” the “5+ nucleoli phenotype percent effect” value was -0.448%. With GUUUGGACAUAGUGUGGCUGG [hsa-miR-7850-5p] the “5+ nucleoli phenotype percent effect” value was 49.1%. With “GAGCUUUUGGCCCGGGUUAUAC [hsa-miR-208a-5p]” the “5+ nucleoli phenotype percent effect” value was 45.1%. With CAAAAACUGCAAUUACUUUCA [hsa-miR-548ae] the “5+ nucleoli phenotype percent effect” value was 38.6%. In the case of GCUCCCUCUAGGGUCGCUCGGA [hsa-miR-4469], the “5+ nucleoli phenotype percent effect” value was 66%. “UACAUGGAUGGAAACCUUCAAGC [hsa-miR-4802-3p]” was tested, and the “5+ nucleoli phenotype percent effect” value was -3.05%. With AGGAUGAGCAAAGAAAGUAGAUU [hsa-miR-1255a] the “5+ nucleoli phenotype percent effect” value was 55.6%. For “CUCUAGAGGGAAGCACUUUCUG [hsa-miR-518d-5p]”, the “5+ nucleoli phenotype percent effect” value was 5.06%. “UAGGUGGCAGAGGAGGGACUUCA [hsa-miR-6865-5p]” was tested, and the “5+ nucleoli phenotype percent effect” value was -3.22%. For “CAGGGAGGCGCUCACUCUCUGCU [hsa-miR-4756-5p]”, the “5+ nucleoli phenotype percent effect” value was 41%. For AAAAGUAACUGCGGUUUUUGCCU [hsa-miR-548w], the “5+ nucleoli phenotype percent effect” value was 56.1%. For CUGUACAGGCCACUGCCUUGC [hsa-let-7g-3p], the “5+ nucleoli phenotype percent effect” value was -28.3%. With GUGGGGGAGAGGCUGUC [hsa-miR-1275] the “5+ nucleoli phenotype percent effect” value was -28.2%.
